Test results published in the nanobody polyreactivity screen of Harvey et al. (2022).

test: yeast display, Sf9 membrane polyspecificity reagent, FACS + sequencing; frameworks hold sequencing errors
Procedure, shortened: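 Synthetic nanobody libraries on Saccharomyces cerevisiae BJ5465 were galactose-induced for 36–48 hours, stained 1 hour at 4 °C with 10% biotinylated, detergent-solubilized Sf9 membrane reagent and enriched on streptavidin microbeads. FACS then separated cells into low and high (top ~1%) gates by anti-HA (expression) and streptavidin (reagent binding) fluorescence. Genes were colony-PCR amplified, MiSeq 2 × 250 sequenced and CDR-length filtered. A clone's polyreactivity label is that of its gate of origin.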

Sequence | polyreactivity (PSR sort gate)
QDHLVESGGGLVQAGGSLRLSCAASGSIFGLYAMGWYRQSPGKERELVAAISFSGDTYYADSVKGRFTISRDNAKNTVYLQMNSLKPEDTAVYYCAAEDWYEYDYWGQGTQVTVSS | high polyreactivity
QDHLVESGGGLVQAGGSLRLSCAASGSIFYRYAMGWYRQAPWKERELVAAISRSGGTTYYADSVKGRFTISRDNAKNTVYLQMNSLKPEDTAVYYCAARVFHPYSTDPYYYWGQGTQVTVSS | high polyreactivity
QDHLVESGGGLVQAGGSLRLSCAASGSTFGKNTMGWYRQAPGKERELVAAISRGVSTYYADSVKGSFTISRDNAKNTVYLQMNSLKPEDTAVYYCAAQEAYRWYGYYYWGQGTQVTVSS | high polyreactivity
QDHLVESGGGLVQAGGSLRLTCAASGSIFISYAMGWYRQAPGKERELVAAISIRGTRTYYADSVKGRFTISRDNAKNTVSLQMNSLKPEDTAVYFCAADASYTEGMDYWGQGTQVTVSS | high polyreactivity
QDHLVESGRGLVQAGGSLRLSCAASGSIFPSYAMVWNRQAPGKERDLVDSITTSGGSTYYADSVKGRFTISRDNAKNTVYLQMNSLKPEDTAVYYCNARRYYYSWGREGGYWGQGTQVTVSS | low polyreactivity
QDKLVESGGALVQAGGSLRISCAASGNIFSYYAMGWNRQAPGKEMDLVAAISRRGTNTYYADSVKGRFTISRDKAKNTVYLQMNSLKPEDTAVYYCASYGPYQSSYHYDYWGQGTQVTVSS | high polyreactivity
QDLHVESGGGVVQAGGSLRVSCAASGRTFISYAMGWSRQAPGKERELVATITRDGRTNYADSVKGRFTFSRDNAKNTVYLQMNSLNAEDTAVYYCNADSRYRYDYWGQGSQVTVSS | low polyreactivity
QDLLVESGGGLVQAGGRLRLSCAASGSTFRYYAMGWYRQAPGKERELVAAITNSCGSTNYADSVKGRFTISRDNAKNTVYLQMNSLKPEDTAVYYCNANTWRYFTMGYWGHGTQVTVSS | high polyreactivity
QDNLVESGGGLVQAGGSLRLICAASGSTNRSNAMGWYRQAPGKERELVAANSRTGGRTYYADSVKGRFTISRDNAKNTVYLQMKCLNQEDTAVYYCARADKRLEYSENYYWGQGTQVTVSS | high polyreactivity
QDQHVESGGGLVQAGGSLRLICSASGSTNGLGWYRQAPGKERELVAVITWDTGGTYYADSVKGRFTISRDNAKNTVYLQMNSLKPEDTAVYYCAKDVGHGAGNLMGYWGQGTQVTVSS | low polyreactivity
QDQHVESGGGLVQAGGSLRLRCSASVRTYFDYDMGRYRQAPGKERELVAAISQSGGSTYYADSVKGRFTISRDNAKYTFYLVMNSLKPEDTGVYECNAYYGYGHRIYDYWGQGTQVTVSS | high polyreactivity
QDQHVESGGGLVQAGGSLRLSCAASGFIFSQYAMGWYRQAPGKERELVAAISSGSTYADSVKGRFTISRDNAKNTVYLQMNSLKPEDTAVYYCAVDYHQAWPSADYWFEYDYWGQGTQVTVSS | low polyreactivity
QDQHVESGGGLVQAGGSLRLSCAASGSIFDVYTMGWYRQAPGKERELVAAINTGGGSTYYADSVKGRFTISRDKAKNTVYLQMNSLKPEDTAVYYCAASVYHYGPLYYWGQGTQVTVSS | low polyreactivity
QDQHVESGGGLVQAGGSLRLSCAASGSIFPWYTMGWYRQAPGKERELVASITKSGARTYYADSVKGRFTISRDNAKNTVYLEITSLKPEDTAVYYCAASLWQRAKVRYQYWGQGPQVTVSS | high polyreactivity
QDQHVESGGGLVQAGGSLRLSCAAYGSTFLYYAMGWFRQAPGKERELVAAITSGGSTYYADSVKGRFTISRDNPKNTVFLQMNRLKPEDTAVYYCTVFGYGYWGQGTQVTVSS | high polyreactivity
QDQHVESGGGLVQAGGSLRLSFAASGRTFISYTKGWYRPAPGKERELVAAINFSGGITYYADSVKGRFTISHDNAMNTVYLQMNSLKPVDTAVYYCAADWRTRYDYWGQGTQVTVSS | low polyreactivity
QDQHVESGGGLVQAGGSLRLSGAASGGTLWVNTMGWYRPAPGKERELVAAISRRGGSTYYADSVKGRFTISRDNAKNTVYLQMNSLKPEDTAVYYCAKGYSSHYWWAYDSWGQGTLVTVSS | high polyreactivity
QDQHVESGGGLVQAGGSLRLSGADSGSIFLLYAMGCYRQAPGKERELVAAISTRDGSTYYADSVKGRFTISRDNAKNTVYLQMNSLKPEDTAVYYCATLYSYNYWGQGTQVTVSS | high polyreactivity
QDQHVESVGGLVQAGGSLRLSCAASGRTFYRYAMGWSRQAPGKEREFVAAISHGGSNTRYADSVKGRFTISRDNAKNTVYLQMKSLKPEDTAVYYCAARAYQHYNWGQGTQVTVSS | high polyreactivity
QDQHVESVGGLVQAGGSLRLSIAASVLILWQNAMGWYRQAPGKERELVARITWSGVSTDYADSVKGRFTISRDNAKNTVYFQMNSLKPEDTADYYWAADYNRYSYNYARYSLGQNDYWGQGTQVTVSS | low polyreactivity
QDQIVESGGGLVQAGGSLRLSCAASGSTFQANAMGWYRQAPGKERELVAAISRSGGSTYYADSVKGRFTISRDNAKNTVYLQMNSLKPEDTAVFYCAADYEYSGYGYWGQGTQVTVSS | high polyreactivity
QDQIVESGGGLVQAGGSLRLSCASYGSTFDRYAMGWYRQAQGKERELVAVITQSGSSTYYADSVKGRFTISRDNAKNTVYLQMKSLKPEDTAVYYCAARYQGSRGQEYYYWGQGTQVTVSS | high polyreactivity

Sequence | polyreactivity (PSR sort gate)
QDQIVESGGGLVQAGGSLRLSCSATGRTYVIYAMGWYRQAHGKERELVASIRRGGSTSYADSVKGRFTISRDNAKNTVYLQMKSLKPEDTAVYYCAAGAHRASSSGNGYWGQGSQVTVSS | high polyreactivity
QDQLEESGGGLVQAGGSLRLICAAYGSTFVLYDMGWYRQEPGKERELVADISYSGGSTYYEDSVKGRFTISRDNAKYTVYLLMKRLIPEDTAFYYCIAGVLVLLYAYLPSELEYWGQGTQVTVSS | low polyreactivity
QDQLEESGGGLVQAGGSLRLSCAASGRMFNSYAMGWYRQAPGKERELVAAISFSGGSTYYADSVKGRFTISRDNAKNTVYLQMNSLKPEDTAVYYCNAVTAVDTAHDYWGQGTQVTVSS | high polyreactivity
QDQLEESGGGLVQAGGSLRLSCAASGRTFFHYAMGWYRQAPGKERELVAGISSGGRTTYADSVKGRFTISRDNAKNTVYLQMISLKPEDTAVYYCAASYIVWLTRGAPRKRFDYWGQGTQVTVSS | high polyreactivity
QDQLEESVGGLVQAGGSLRLSCAASGSTFSYYAMGWYRQATGKERELVAAISTLGSSTYYADSVKGRFTISRDNAKNTVNLQMNSLKPEDTAVYYCAVDQYKYDWFYDYYGYTYVYWGQGTQVTVSS | high polyreactivity
QDQLGESGGGLVQAGGSLRLTCAASGFIFSNNAMGWYRPSPGKERELVAAISGSGVSTYYADSVKGRFTISRDNAKNTVYLQMNSLKPEDTAVYYCAASASLRHDYWGQGTQVTVSS | high polyreactivity
QDQLLESGGGLVQAGGSLRLSCAASGSTFGANAMGWYRQAPGKEREFVAAISRSGLRTYYADSVKGRFTNSRDYAKNTVYIQMNSLKPEDTAVYYCSADCYWWTYTRYDYWGQGSQVTVSS | low polyreactivity
QDQLVDSGGGLVQAGGNLRLSCAASGRTFPPYSMGWDRQAPGKERELVAAISGSGASTYYADSEKGRFTISRDNAKNTVYLQMNCLKPEDSAVYYCARYRGYWGRYYGVDYGYWGQGTQVTVSS | high polyreactivity
QDQLVDSGGGLVQAGGSLRLICAASGRTYRKYAMGWYRQAPGKERELVADISWSGGSTYYANSVKGRFTISRDIAKNTVYLQMNSLKPEDTAVYYCAAVPVHTGSLYWGFTTGYDYWGQGTQVTVSS | low polyreactivity
QDQLVDSGGGLVQAGGSLRLSCAASGRSFRNNPMGWYRQAPGKERELVAAITSSGASTYYADSVKGRFTISRDNAKNTVYLQMNSLKPEDTAVYSCAAATVRQFRSSLDYWGQGTQVTVSS | high polyreactivity
QDQLVDSGGGLVQAGGSLRLSCAASGSIQSRYAMGWYRQAPGKERELVAAISRSTDSTYYADSVKGRFTISRDNAKNTVYLKMNSLKPEDTAGYYCNAVYRSSYQKGSMDYWGQGTQVTVSS | high polyreactivity
QDQLVDSGGGLVQAGGSLRLSCAASGTFFMGWYRQAPGKERELVAGISIYDGSTYYADSVKGRFTISRDNAKNTVYLQMNRLKPEDTAVYYCAAEFYPTTGFDYWGQGTQVTVSS | low polyreactivity
QDQLVDSGGGLVQAGGSLRLSCAASVRTFDRYAMGWYRQAPGKVRELVAAISGRGGSTYYADSVKGRFTISRDNAKNTVYLQMNSLKPEDTAVYYCAARGSLWGAPSDYYYCGQGTQVTVSS | high polyreactivity
QDQLVDSGGGLVQAGGSLSLSCAASGRTSGRYAMGWYRQAPGKERELVAGITSSGGSTYYADSVKGRFTISRDNAKNTVYLQMNSLKPEDTAVYYCAKVWGAKGKTYRMYSWGKGTQVTVSS | high polyreactivity
QDQLVDSGVGLVQAGGSLRLSCAASGLIFGRNVMGWYRQAPGKERELVAAISWSGGRTYYADSVKGRFTISRDNAKNTVYLQMNSLKPEDTAVDYCATDRSTRTYRSPYDYWGQGTQVTVSS | high polyreactivity
QDQLVEACGGLVQAGGSLRLSCASSRSIIRGYAMGWYIQAHGKERELVAVIRRTSVSTYYADSVKGRFTISRDNAKNTVYLQMKCLKPEDTAVYYCNTLRLSSYPYYGYLGQGTQVTVSS | high polyreactivity
QDQLVEAGGGLVQAGGSLRKSCAASGRIFNTNAMGWNRQAPGKERELVAGITDSGDSTYYADSVKGRFTISRDNAKNTVYLQMNRLKPEDSAVYYCATDPASPYIYDFWGQGTQVTVSS | low polyreactivity
QDQLVESAGGLVQAGGSLRLSCAASASIFVSYAMGWYRQAPGKERELVAAITRSGGSTYYSDSVKGRFTISRDNAKYTVYLQMNSLKPDDTAVYYCAARSYLGAYRRFYWGQGTQVTVSS | high polyreactivity
QDQLVESAGGLVQAGGSLRLSCAASGSISYNNVMGWYRQAPGKERELVARIRSGGSTYYADSVKGRFTISRDNAKNTVYLQMNSLKPEDTAVYYCAARTKRQAGSYGYWGQGTQVTVSS | high polyreactivity
QDQLVESAGGLVQAGGSLRLTCAASGFIFADNAMGWYRQAPGKERELVAGITSGGITYYADSVKGRFTISRDNAKNTVYLQMNCLKPEDTAVYYCNTTSYPEFDYWGHGTQVTVSS | low polyreactivity
QDQLVESCGALVQAGGSLRLSCAASGSTFNFYAMGWYRQAPGKERELVAAITWRGGSTYYADSVKGRFTISRDFAKNTVYLQMNSLKPEDSAVYYCAAARGKDGYWGQGTQVNVSS | high polyreactivity
